Measured values: article doi:10.1101/2025.08.11.669711 (2025)
Residue numbers refer to the chain shown, from its start. One block for each binder: values may come before it.

What was measured:
[1] = biological target: T1, UCH37; test: SPR
T1 chain: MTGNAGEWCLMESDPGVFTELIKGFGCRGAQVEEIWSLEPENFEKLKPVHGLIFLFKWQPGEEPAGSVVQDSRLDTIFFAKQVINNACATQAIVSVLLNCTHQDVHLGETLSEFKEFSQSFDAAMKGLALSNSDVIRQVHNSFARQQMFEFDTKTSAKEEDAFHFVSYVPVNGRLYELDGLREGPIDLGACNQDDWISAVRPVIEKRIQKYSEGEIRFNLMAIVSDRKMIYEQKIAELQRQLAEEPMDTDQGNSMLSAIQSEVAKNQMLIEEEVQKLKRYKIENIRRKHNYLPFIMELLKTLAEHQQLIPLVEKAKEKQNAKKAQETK

[2] = biological target: T2, UCH37•RPN13^DEUBAD (UniProt Q16186 253-407); test: MST
T2 chain 1: T1 chain
T2 chain 2: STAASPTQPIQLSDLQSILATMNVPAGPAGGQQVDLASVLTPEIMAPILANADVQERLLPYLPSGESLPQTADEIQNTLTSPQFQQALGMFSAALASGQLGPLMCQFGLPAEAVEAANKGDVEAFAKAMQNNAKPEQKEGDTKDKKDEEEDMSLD

- koff [1]: 3.9e-05 s⁻¹
B1: Nb-ncS1 (His-tagged) (VHH)
VHH: RVQLQESGGGLVQAGGSLRLSCAASGYIFRSYRMGWYRQAPGKERELVAAIGLGGNTYYADSVKGRFTISRDNAKNTVYQQMNSLKPEDTAVYYCAALYGKPPAFSPFPYWGQGTQVTVSS

- koff [1]: 0.00013 s⁻¹
B2: Nb-v1 (recombinant) (VHH)
VHH: B1 VHH with R1Q, Q80L, Y99H, P109A

- Kd [2]: 199 nM
B3: Nb-cS1 (His-tagged) (VHH)
VHH: QVQLQESGGGLVQAGGSLRLSCAASGYISRPRTMGWYRQAPGKEREFVAIISNGAITNYADSVKGRFTISRDNAKNTVYLQMNSLKPEDTAVYYCAAGRNIWHAYWGQGTQVTVSS
